The supplement of paper PMC6757056
± gives the standard deviation of the averaged measurements.

B1: library; a variant is named by its letters at N, in order (parent)
chain: GCUGUCACCGGUGCUUGGUACGUUAUAUUCAGCCGGUCUGAUGAGUCUNNNNNNAGACGAAACAGC

What was measured:
(6R,S)-folinic acid [1] = variants of: B1; test: normalized RNA/DNA level without ligand (relative to sTRSVctl = 100) (log10 (% of sTRSVctl)); HEK293T overexpressing SLC46A1; higher = less ribozyme self-cleavage, higher mRNA level; details: without (6R,S)-folinic acid; ligand present: no
Outline: (§1)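 Ribozyme switch library plasmids with mCherry reporters (eGFP in certain ligand experiments) went into HEK293T cells at 4 µg per 6-well well. Where ligand was used, it was applied 1 h before transfection, and total RNA was extracted with EDTA 72 h later for reverse transcription, amplification, barcoding and sequencing. RNA level is the RNA-to-DNA read ratio normalized to a spiked-in non-cleaving sequence or to the leading sequences, then scaled and log-transformed. Scaling was ×100 with log10, the leading set comprised 25 sequences, and the cutoff was ≥100 DNA reads.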

(6R,S)-folinic acid [2] = variants of: B1; test: normalized RNA/DNA level with ligand (relative to sTRSVctl = 100) (log10 (% of sTRSVctl)); HEK293T overexpressing SLC46A1; ligand concentration (+) RNA-Seq: 6 mM; higher = less ribozyme self-cleavage, higher mRNA level; details: with (6R,S)-folinic acid; ligand present: yes
Outline: as §1

Variant	normalized RNA/DNA level without ligand (log10) ((6R,S)-folinic acid [1])	normalized RNA/DNA level with ligand (log10) ((6R,S)-folinic acid [2])
AGCUUU	2.014 ± 0.0092	2.016 ± 0.018
CGGAAA	1.9343 ± 0.0017	1.98 ± 0.045
GGGAAA	1.99 ± 0.0091	2.02 ± 0.036
UGGAAA	1.919 ± 0.0043	1.98 ± 0.028
AGGAAA	1.942 ± 0.0081	1.99 ± 0.04
CGGAAC	1.984 ± 0.0056	2 ± 0.034
GGGAAC	1.997 ± 0.015	2.02 ± 0.032
UGGAAC	1.921 ± 0.0075	2 ± 0.035
CGGAAG	1.94 ± 0.021	1.98 ± 0.028
AGGAAG	1.89 ± 0.0078	2.01 ± 0.043
GGGAAU	2.008 ± 0.0024	2.019 ± 0.02
UGGAAU	1.869 ± 0.0092	2 ± 0.024
CGGACA	2.037 ± 0.0086	2.02 ± 0.03
AGGACA	1.989 ± 0.0041	2.02 ± 0.038
CGGACC	2.072 ± 0.0055	2.0545 ± 0.0011
GGGACC	2.049 ± 0.0006	2.04 ± 0.024
AGGACC	2.029 ± 0.0033	1.99 ± 0.043
CGGACG	2.017 ± 0.012	2.02 ± 0.0049
GGGACG	2.039 ± 0.01	2.06 ± 0.051

Variant	normalized RNA/DNA level without ligand (log10) ((6R,S)-folinic acid [1])	normalized RNA/DNA level with ligand (log10) ((6R,S)-folinic acid [2])
AGGACG	1.962 ± 0.0089	2.032 ± 0.014
CGGACU	2.043 ± 0.0042	2.01 ± 0.023
UGGACU	2.006 ± 0.0056	2.01 ± 0.023
AGGACU	1.993 ± 0.0073	2.009 ± 0.017
CGGAGA	1.997 ± 0.017	2.03 ± 0.042
GGGAGA	2.021 ± 0.0092	2.05 ± 0.043
CGGAGC	1.994 ± 0.0049	2 ± 0.032
UGGAGC	1.996 ± 0.0034	2.06 ± 0.036
AGGAGC	1.99 ± 0.016	2.01 ± 0.04
CGGAGG	1.83 ± 0.02	1.994 ± 0.01
CGGAGU	2.019 ± 0.017	2.025 ± 0.012
AGGAGU	1.934 ± 0.0037	2.033 ± 0.014
GGGAUA	2 ± 0.028	2.03 ± 0.022
UGGAUA	1.93 ± 0.022	1.99 ± 0.031
CGGAUC	2.085 ± 0.011	2.034 ± 0.003
GGGAUC	2.037 ± 0.0086	2.04 ± 0.027
UGGAUC	2.039 ± 0.01	2.01 ± 0.032
AGGAUC	2.059 ± 0.012	2.014 ± 0.013
AGGAUG	1.92 ± 0.031	2.037 ± 0.019

Variant	normalized RNA/DNA level without ligand (log10) ((6R,S)-folinic acid [1])	normalized RNA/DNA level with ligand (log10) ((6R,S)-folinic acid [2])
CGGAUU	2.031 ± 0.015	2.02 ± 0.045
GGGAUU	2.0271 ± 0.0004	2.04 ± 0.047
AGGAUU	2.024 ± 0.017	2.05 ± 0.028
CGGCAA	2.086 ± 0.0085	2.05 ± 0.023
GGGCAA	2.046 ± 0.013	2.05 ± 0.027
UGGCAA	1.97 ± 0.024	2.01 ± 0.033
CGGCAC	2.102 ± 0.011	2.052 ± 0.0022
GGGCAC	2.003 ± 0.0062	2.02 ± 0.041
UGGCAC	2.041 ± 0.016	2.04 ± 0.042
CGGCAG	1.997 ± 0.0087	2.01 ± 0.052
GGGCAG	2.03 ± 0.0034	2.05 ± 0.057
AGGCAG	1.965 ± 0.0036	1.99 ± 0.053
UGGCAU	1.965 ± 0.014	2.01 ± 0.021
CGGCCA	2.111 ± 0.021	2.058 ± 0.0046
GGGCCA	2.126 ± 0.019	2.09 ± 0.041
AGGCCA	2.0454 ± 0.0016	2.04 ± 0.04
CGGCCC	2.09 ± 0.035	2.04 ± 0.032
GGGCCC	2.102 ± 0.0043	2.08 ± 0.039
UGGCCC	2.059 ± 0.0063	2.06 ± 0.068
